The target of assay [1] is T1, FcγRIIIa-F158 (Pichia pastoris produced) (UniProt P08637 17-208, limits assumed).
T1 construct: also called FcγRIIIA LF; FcgRIIIA LF
The experiment in a line: ELISA-type plate assay, FcγR coated, antibody dimerized with AP-conjugated goat anti-human IgG F(ab')2, RFU readout.

The target in assay [2] is T2, FcγRIIa (Pichia pastoris produced) (UniProt P12318 34-217, limits assumed).
T2 construct: also called CD32A
T2 sequence (looked up): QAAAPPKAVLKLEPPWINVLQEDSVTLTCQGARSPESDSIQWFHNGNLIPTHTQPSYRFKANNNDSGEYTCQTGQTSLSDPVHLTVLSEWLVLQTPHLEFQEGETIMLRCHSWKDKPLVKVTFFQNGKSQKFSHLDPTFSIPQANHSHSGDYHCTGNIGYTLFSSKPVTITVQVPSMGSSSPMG
The assay is described as above.

In assay [3] the target is T3, FcγRIIIa-V158 (Pichia pastoris produced) (UniProt P08637 17-208, limits assumed).
T3 construct: also called FcγRIIIA LV; FcgRIIIA LV
T3 sequence (P08637 17-208 F176V limits assumed): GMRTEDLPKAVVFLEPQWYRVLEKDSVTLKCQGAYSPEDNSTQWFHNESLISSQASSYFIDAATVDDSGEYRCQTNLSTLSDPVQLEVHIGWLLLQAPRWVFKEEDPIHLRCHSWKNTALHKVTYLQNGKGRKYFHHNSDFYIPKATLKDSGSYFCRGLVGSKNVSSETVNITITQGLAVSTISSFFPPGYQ
The experiment in a line: ELISA on plate-coated receptor; antibody dimerized with anti-human IgG F(ab')2-AP; ELISA IC50, YGLY23258 (dimer), Table 3 experiment. As to the method:
(§1) Fcγ receptor binding assays were carried out as described (Shields, et al. (2001) J. Biol. Chem. 276:6591-6604) with minor modifications. High protein binding 96-well plates (Corning Costar) were coated with 100 μL per well of Fcγ receptor solutions in PBS at the following concentrations: 1 μg/mL for both FcγRI (R&D Systems) and FcγRIIa (Pichia pastoris produced), 2 μg/mL for FcγRIIb (P. pastoris produced), 0.8 μg/mL for FcγRIIIa-F158, and 0.4 μg/mL for FcγRIIIa-V158 (both P. pastoris produced). All Pichia pastoris produced receptors were expressed and purified as described (Li, et al. (2006) Nature Biotechnology 24:210-215). Monomeric antibody samples added to the FcγRI plate were serially diluted in assay diluent (1×PBS, 1% BSA, and 0.05% Tween20) and 100 μL, per well was added to the plate. Antibody samples prepared for the remaining receptors require a one hour dimerization step with half molar ratio of goat anti-human IgG F(ab′)2 F(ab′)2 that is conjugated with alkaline phosphatase for detection. […] FcγRI bound sample antibody was detected using the same goat anti-human IgG F(ab′)2 alkaline phosphatase conjugated F(ab′)2. Sample antibody binding was quantified by measuring excitation at 340 nm and emission at 465 nm after 18 hour incubation with SuperPhos, 4-MUP Fluorescence AP Substrate Detection System (Virolabs).

Assay [4] deals with T1, FcγRIIIa-F158 (Pichia pastoris produced). The assay is described as above. As to the method:
as §1

By EC50 (read off the curve) is commonly meant the concentration at which the effect is half-maximal. Lower therefore signals a more potent agent. The term IC50 denotes the midpoint of a concentration-inhibition curve. A low value points to greater potency.

T1 sequence (P08637 17-208 limits assumed): as the sequence (P08637 17-208 F176V limits assumed) above, with V160F counted along it

B1: 1F11 wildtype (parent) humanized anti-PCSK9 monoclonal IgG1 antibody (antibody)
heavy: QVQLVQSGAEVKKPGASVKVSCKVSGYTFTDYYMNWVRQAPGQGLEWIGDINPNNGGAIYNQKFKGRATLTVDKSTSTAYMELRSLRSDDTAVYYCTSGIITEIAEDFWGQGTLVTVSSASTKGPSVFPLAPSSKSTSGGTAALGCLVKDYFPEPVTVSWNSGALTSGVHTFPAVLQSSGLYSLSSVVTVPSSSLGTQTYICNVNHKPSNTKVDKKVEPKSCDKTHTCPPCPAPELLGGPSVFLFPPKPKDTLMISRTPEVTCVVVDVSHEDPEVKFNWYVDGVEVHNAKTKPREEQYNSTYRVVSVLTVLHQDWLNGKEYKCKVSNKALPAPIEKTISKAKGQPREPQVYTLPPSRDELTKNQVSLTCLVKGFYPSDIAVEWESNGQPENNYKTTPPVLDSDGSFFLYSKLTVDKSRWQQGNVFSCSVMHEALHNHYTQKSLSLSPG
light: DIQMTQSPSSLSASVGDRVTITCKASQNVGTNVVWYQQKPGKAPKALIHSASYRYSGVPSRFSGSGSGTDFTLTISSLQPEDFATYYCQQYKTYPYTFGQGTKVEIKRTVAAPSVFIFPPSDEQLKSGTASVVCLLNNFYPREAKVQWKVDNALQSGNSQESVTEQDSKDSTYSLSSTLTLSKADYEKHKVYACEVTHQGLSSPVTKSFNRGEC
notes: Produced in glycoengineered Pichia pastoris GFI5.0 (strain YGLY21351); also called 1F11 IgG1 GS5.0; YGLY21351
As for B1, the figures for the “EC50 (read off the curve)” value in assay [1] and in assay [2] were ~0.02 mg/L and ~0.03 mg/L, respectively.

B2: 1F11 IgG1 F243A/V264A double mutein anti-PCSK9 antibody (antibody)
heavy: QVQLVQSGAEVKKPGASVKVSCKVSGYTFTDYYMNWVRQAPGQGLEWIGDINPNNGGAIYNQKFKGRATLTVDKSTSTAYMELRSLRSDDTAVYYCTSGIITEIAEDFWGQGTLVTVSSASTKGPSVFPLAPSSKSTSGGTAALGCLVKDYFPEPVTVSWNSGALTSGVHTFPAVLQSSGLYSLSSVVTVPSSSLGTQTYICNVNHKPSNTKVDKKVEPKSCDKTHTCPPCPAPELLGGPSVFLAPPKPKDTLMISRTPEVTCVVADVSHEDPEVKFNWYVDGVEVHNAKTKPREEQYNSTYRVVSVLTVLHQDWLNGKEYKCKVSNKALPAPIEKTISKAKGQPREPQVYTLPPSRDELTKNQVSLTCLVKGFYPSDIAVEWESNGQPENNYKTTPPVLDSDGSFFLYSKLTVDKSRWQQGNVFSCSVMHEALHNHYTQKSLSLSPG
light: B1 light
notes: sialylated N-glycans; also called 1F11 DM; YGLY23258
As for B2, the IC50 in assay [3] is 0.09 mg/L; in assay [4], 0.6 mg/L.

These data come from US20140086916A1 (Merck Sharp & Dohme, published 2014).
